Data published in the supplement of paper PMC7877785.
± gives the uncertainty stated by the source.

Assay: self-splicing fitness, log relative to wild type (ln ratio); higher = more splicing; Tetrahymena group I intron in knt gene, E. coli kanamycin selection, DiMSum; sequences stand for … in CUCUCU…GGAGGGAAAAGUUAUCAGGCAUGCACCUGGUAGCUAGUCUUUAAACCAAUAGAUUGCAUCGGUUUAAAAGGCAAGACCGUCAAAUUGCGGGAAAGGGGUCAACAGCCGUUCAGUACCAAGUCUCAGGGGAAACUUUGAGAUGGCCUUGCAAAGGGUAUGGUAAUAAGCUGACGGACAUGGUCCUAACCACGCAGCCAAGUCCUAAGUCAACAGAUCUUCUGUUGAUAUGGAUGCAGUUCACAGACUAAAUGUCGGUCGGGGAAGAUGUAUUCUUCUCAUAAGAUAUAGUCGGACCUCUCCUUAAUGGGAGCUAGCGGAUGAAGUGAUGCAACACUGGAGCCGCUGGGAACUAAUUUGUAUGCGAAAGUAUAUUGAUUAGUUUUGGAGUACUCGUGGUCG
In short: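 The eight P1ex-region nucleotides of an intron in the knt kanamycin-resistance gene on pET-22b(+) were all randomised and the library put into E. coli BL21(DE3). Six replicate transformations were grown overnight at 37°C or 30°C on LB agar with or without 25 μg/mL kanamycin, together with 100 μg/mL carbenicillin, 50 μM IPTG and 0.2% rhamnose. Colonies were pooled and amplicon-sequenced on an Illumina HiSeq 2500. Fitness from DiMSum is the error-weighted combination of wild-type-normalised replicate fold changes, kanamycin over none.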

Sequence	self-splicing fitness (ln) (30 °C)	self-splicing fitness (ln) (37 °C)
AGUGAGCAAUAUUACGCCUG	-3.85 ± 0.29	-2.38 ± 0.29
AGUGAGCAAUAUUACGCUUU	-4.07 ± 0.32	-3.04 ± 0.4
AGUGAGCAAUAUUACGGCGG	-1.83 ± 0.31	-2.29 ± 0.26
AGUGAGCAAUAUUACGGCUU	-2.43 ± 0.17	-1.72 ± 0.25
AGUGAGCAAUAUUACGGGAG	-5.04 ± 0.41	-2.38 ± 0.14
AGUGAGCAAUAUUACGGGCA	-1.22 ± 0.3	-1.73 ± 0.15
AGUGAGCAAUAUUACGUACC	-0.317 ± 0.2	-0.261 ± 0.28
AGUGAGCAAUAUUACGUACG	-2.22 ± 0.16	-1.3 ± 0.13
AGUGAGCAAUAUUACGUGAU	-2.87 ± 0.26	-2.74 ± 0.34
AGUGAGCAAUAUUACGUGCG	-3.31 ± 0.33	-2.08 ± 0.37
AGUGAGCAAUAUUACGUGUG	-2.69 ± 0.21	
AGUGAGCAAUAUUACGUUGA	-2.51 ± 0.13	-2.75 ± 0.2
AGUGAGCAAUAUUACGUUUA	-3.37 ± 0.45	-2.04 ± 0.22
AGUUAGCAAUAUUACGAAAU	-2.58 ± 0.13	-1.62 ± 0.13
AGUUAGCAAUAUUACGACAU	0.112 ± 0.013	0.071 ± 0.033
AGUUAGCAAUAUUACGACCC	-0.338 ± 0.19	-0.0159 ± 0.49
AGUUAGCAAUAUUACGAGAC	-3.11 ± 0.26	-2.02 ± 0.27
AGUUAGCAAUAUUACGAUGC	-1.75 ± 0.2	-0.0326 ± 0.17
AGUUAGCAAUAUUACGCAAU	-1.6 ± 0.18	-2.52 ± 0.29
AGUUAGCAAUAUUACGCACC	-1.35 ± 0.15	-0.000166 ± 0.19
AGUUAGCAAUAUUACGCCGA	-2.78 ± 0.46	-1.71 ± 0.39

Sequence	self-splicing fitness (ln) (30 °C)	self-splicing fitness (ln) (37 °C)
AGUUAGCAAUAUUACGCCGC	-2.09 ± 0.38	
AGUUAGCAAUAUUACGCCGU	-1.15 ± 0.099	-0.939 ± 0.14
AGUUAGCAAUAUUACGCUGU	-2.3 ± 0.14	-2.01 ± 0.21
AGUUAGCAAUAUUACGCUUU	-2.56 ± 0.13	-1.09 ± 0.13
AGUUAGCAAUAUUACGGAUU	-1.32 ± 0.14	-0.035 ± 0.16
AGUUAGCAAUAUUACGGCAG	-0.102 ± 0.13	-1.48 ± 0.21
AGUUAGCAAUAUUACGGGAG	-4.34 ± 0.39	-1.65 ± 0.22
AGUUAGCAAUAUUACGGGCC	-2.24 ± 0.21	-1.61 ± 0.18
AGUUAGCAAUAUUACGGGGG	-2.04 ± 0.27	-1.38 ± 0.31
AGUUAGCAAUAUUACGGGUA	-2.61 ± 0.39	-0.0817 ± 0.2
AGUUAGCAAUAUUACGGGUG	-3.86 ± 0.25	-1.64 ± 0.21
AGUUAGCAAUAUUACGUAAA	-2.85 ± 0.28	-1.4 ± 0.26
AUAAAGCAAUAUUACGAAGC	-4.43 ± 0.46	-0.791 ± 0.29
AUAAAGCAAUAUUACGACGA	-0.00868 ± 0.096	0.701 ± 0.12
AUAAAGCAAUAUUACGAGGU	-3.99 ± 0.16	-1.9 ± 0.21
AUAAAGCAAUAUUACGAUAA	-0.405 ± 0.079	-0.094 ± 0.094
AUAAAGCAAUAUUACGAUAG	-2.82 ± 0.15	-0.468 ± 0.14
AUAAAGCAAUAUUACGAUGC	-1.39 ± 0.08	-0.56 ± 0.12
AUAAAGCAAUAUUACGCACG	-0.375 ± 0.083	-0.0827 ± 0.11
AUAAAGCAAUAUUACGCGUA	-0.873 ± 0.079	-0.0465 ± 0.091
AUAAAGCAAUAUUACGCGUU	-1.56 ± 0.084	0.0344 ± 0.1
